Earlier results on one substance are cited in patent US20100216667A1, “METHOD FOR DETERMINING COMPATIBILITY OF AN ACTIVE PHARMACEUTICAL INGREDIENT WITH MATERIALS” (priority 2008, published 2010).

For this data set the following is noted: pre-filled syringes with uncoated stoppers and Polysorbate-80.

For the substance “EPREX: marketed product whose active ingredient is erythropoietin”, the “Pure red cell aplasia (PRCA) in treated patients” value is given as “increase in pure red cell aplasia (PRCA)”.
